Laboratory results: article doi:10.1101/2023.12.05.570199

Biological target: AliC (residues 24-655) (Streptococcus pneumoniae)
Assay: crystal structure

stoichiometry N: 2
Substance: AliC (residues 24-655) (natural protein)
